B1: M0738 (VHH)
VHH: EVQLVESGGGLVEAGVSLRLSCAASGRTSENFAMGWFRQAPGNEREFVAAITRNHRTFYKESVKDRFTISRDDAKNTVYLEMNNLVPDDTAVYTCAAKFDPYASASSYYTGYYYWGQGTQVTVSS
notes: Llama-derived VHH
B2: M0735 (VHH)
VHH: EVQLVESGGGLVQAGGSLRLSCAASGLTFRRYTMGWFRQAPGKEREFVAAIVSSDSTNYADSVKGRFTISRDNAKNTVYLEMNSLKPDDTCVYYCAARNSLSLYVSNLGSRYDYWGQGTQVTVSS
notes: Llama-derived VHH
B3: M0744 (VHH)
VHH: EVQLVESGGGLVQPGGSLRLSCAASGSIFSINDMDWYRQAPGKQRELVAAITRGGSTNYADSVKGRFTISRDNAKNTVYLQMNSLKPEDTAVYYCNAEVSTETTGWRTWRDYWGQGTQVTVSS
notes: Llama-derived VHH
B4: M0740 (VHH)
VHH: EVQLVESGGGLVQPGGSLRLSCLASGFPFSMYTMNWVRQAPGKGLEWVSAISSGGAVTTYADSVKGRFTISRDNAKNTLYLQMSSLKPEDTAVYYCESSNNRGQGTQVTVSS
notes: Llama-derived VHH
B5: M0741 (VHH)
VHH: EVQLVESGGGAVQAGGSQRLSCTVSGRPFTKYAMGWFRQPPEKEREFVATSTWEGSTYYADSVKGRFTISRDNANNIIDLQMNTLKPEDTAVYFCAASNTYNADTTYYAKSTAFNFWGQGTQVTVSS
notes: Llama-derived VHH
B6: M0745 (VHH)
VHH: EVQLVESGGGLVQAGGSLRLSCAVSGRRVSIYGMGWYRLAPGKQREMVASITSGGITTYADSVKGRFSISRDNAKNTVYLQMNSLKPEDTAVYYCNYHDYRVQGESWGQGTQVTVSS
notes: Llama-derived VHH
B7: M0736 (VHH)
VHH: EVQLVESGGGLVQAGGSLRLSCTVSGRTSSAFAMGWFRQAPGKEREFVAAINLTGGTTNYAESVKGRFTISRDNAKNTGYLGMSSLKPEDTAVYYCAGRNRWSEGREVAPSSYYYWGQGTQVTVSS
notes: Llama-derived VHH
B8: M0734 (VHH)
VHH: EVQLVESGGGLVQAGGSLRVSCAASGLTFSNYAMGWFQQAPGKEREFVAGISWSGVSTYYADFVKGRFTISRDNAKNTVYLQMNSLKPEDTAVYYCAADNRRYSRGTSISTWRSDYDYWGQGTQVTVSS
notes: Llama-derived VHH
B9: M0866 scFv (scFv)
scFv: QSVKESGGRLVTPGTPLTLTCTASGFTISSSAISWVRQAPGKGLEYIGIIRSGGTTDYASWAKGRFAISKTSTTVDLKITSPTTEDTATYFCARDPPYITSTYFDLWGQGTLVTVSSGGGGSGGGGSGGGGSGGGGASELVLTQPQSVSGSLGQTVSISCKRARDSVESYDVHWYQQHPGKTPTIVIYKDDQRPSGVPDRFSGSIDSTSNSASLTITGLLAEDEADYFCQSFDGDAVVFGGGTQLTVTG
notes: Rabbit scFv identified by phage display
B10: M0737 (VHH)
VHH: EVQLVESGGGLVQRGDSRRLSCAASGRPFSSFAMGWFRQAPGKEREFVAGISRSAGNTDYSDSVKGRFTISRDNAKNTVYLELNNLTPEDTAVYYCAAQIAIGTGSVFQSNTQYMYWGQGIQVTVSS
notes: Llama-derived VHH
B11: M0746 (VHH)
VHH: EVQLVESGGGLVQAGGSLRLSCAASGRTFSNNAMGWFRQGPDQEREFVAAISRSGGGSGGAPLYADSVKGRFTISRDNAKNTMSLSMNSLSPEDTAVYYCAARSLYKVAGSDDLSDYAYWGQGTQVTVSS
notes: Llama-derived VHH
B12: M0748 (VHH)
VHH: EVQLVESGGGAVQAGGSLRLSCTVSGRPFTKYAWGWFRQPPEKEREFVATSTWDVGSTYYADSAKGRFTISRDNANNIIDLQMNSLKPEDTAVYYCAASNTYSSDITYYAKPMAFNFWGQGTQVTVSS
notes: Llama-derived VHH

Target: T1, HLA-A2/MAGE-A4 complex, recombinant (HLA-A*02:01 extracellular domain, human b2m, MAGE-A4 peptide 230-239 …) (human, UniProt P04439 25-299 at identity 0.94); P61769 21-119)
T1 construct: also called MAGE-A4 pMHC; MAGE-A4/HLA-A2 complex
Test: phage display biopanning and screening

| Binder | binding result |
| --- | --- |
| B1 | binds |
| B2 | binds |
| B3 | binds |
| B4 | binds |
| B5 | binds |
| B6 | binds |
| B7 | binds |
| B8 | binds |
| B9 | binds |
| B10 | binds |
| B11 | binds |
| B12 | binds |

From patent US20240279344A1 (CDR LIFE, published 2024)
